# B1: ELF3 (parent)
# chain: LSKEYWDCLEGKKSKHAPRGTHLW
# Variants of: B1
# Experiment: protein stability index of a GFP-peptide fusion (GPS, HEK-293T) (PSI 1-6); higher = more stable
# Conditions: c terminus: a fixed tail appended
# 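Also: lentivirally expressed fusions sorted by FACS into six bins by GFP to DsRed ratio, PSI derived from sequencing read proportions per bin multiplied by bin number.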
row,Variant,protein stability index
1,LSKEYWDCLEGKFSKHAPRGTHLW [K13F],2.74
2,LSKEYWDCLEGKYSKHAPRGTHLW [K13Y],2.82
3,LSKEYWDCLEGKPSKHAPRGTHLW [K13P],2.47
4,LSKEYWDCLEGKHSKHAPRGTHLW [K13H],2.87
5,LSKEYWDCLEGKGSKHAPRGTHLW [K13G],3.08
6,LSKEYWDCLEGKISKHAPRGTHLW [K13I],2.22
7,LSKEYWDCLEGKVSKHAPRGTHLW [K13V],2.32
8,LSKEYWDCLEGKMSKHAPRGTHLW [K13M],2.3
9,LSKEYWDCLEGKLSKHAPRGTHLW [K13L],2.64
10,LSKEYWDCLEGKQSKHAPRGTHLW [K13Q],3.17
11,LSKEYWDCLEGKCSKHAPRGTHLW [K13C],2.24
12,LSKEYWDCLEGKESKHAPRGTHLW [K13E],3.52
13,LSKEYWDCLEGKTSKHAPRGTHLW [K13T],2.37
14,LSKEYWDCLEGKDSKHAPRGTHLW [K13D],3.24
15,LSKEYWDCLEGKNSKHAPRGTHLW [K13N],2.36
16,LSKEYWDCLEGKWSKHAPRGTHLW [K13W],2.92
17,LSKEYWDCLEGKASKHAPRGTHLW [K13A],2.76
18,LSKEYWDCLEGKRSKHAPRGTHLW [K13R],2.87
19,LSKEYWDCLEGTKSKHAPRGTHLW [K12T],2.43
20,LSKEYWDCLEGHKSKHAPRGTHLW [K12H],2.52
21,LSKEYWDCLEGFKSKHAPRGTHLW [K12F],2.71
22,LSKEYWDCLEGVKSKHAPRGTHLW [K12V],2.23
23,LSKEYWDCLEGRKSKHAPRGTHLW [K12R],2.35
24,LSKEYWDCLEGLKSKHAPRGTHLW [K12L],2.06

row,Variant,protein stability index
1,LSKEYWDCLEGQKSKHAPRGTHLW [K12Q],2.99
2,LSKEYWDCLEGIKSKHAPRGTHLW [K12I],2.26
3,LSKEYWDCLEGWKSKHAPRGTHLW [K12W],1.54
4,LSKEYWDCLEGNKSKHAPRGTHLW [K12N],3.68
5,LSKEYWDCLEGCKSKHAPRGTHLW [K12C],1.97
6,LSKEYWDCLEGSKSKHAPRGTHLW [K12S],3.38
7,LSKEYWDCLEGGKSKHAPRGTHLW [K12G],2.58
8,LSKEYWDCLEGAKSKHAPRGTHLW [K12A],2.54
9,LSKEYWDCLEGDKSKHAPRGTHLW [K12D],3.4
10,LSKEYWDCLEGMKSKHAPRGTHLW [K12M],2.53
11,LSKEYWDCLEGEKSKHAPRGTHLW [K12E],3.21
12,LSKEYWDCLEGYKSKHAPRGTHLW [K12Y],1.88
13,LSKEYWDCLEGPKSKHAPRGTHLW [K12P],2.96
14,LSKEYWDCLEYKKSKHAPRGTHLW [G11Y],2.58
15,LSKEYWDCLEPKKSKHAPRGTHLW [G11P],2.89
16,LSKEYWDCLECKKSKHAPRGTHLW [G11C],2.27
17,LSKEYWDCLEMKKSKHAPRGTHLW [G11M],1.94
18,LSKEYWDCLESKKSKHAPRGTHLW [G11S],3.5
19,LSKEYWDCLERKKSKHAPRGTHLW [G11R],3.26
20,LSKEYWDCLEWKKSKHAPRGTHLW [G11W],1.82
21,LSKEYWDCLEVKKSKHAPRGTHLW [G11V],2.2
22,LSKEYWDCLENKKSKHAPRGTHLW [G11N],3.48
23,LSKEYWDCLEHKKSKHAPRGTHLW [G11H],2.17
24,LSKEYWDCLEIKKSKHAPRGTHLW [G11I],2.29

row,Variant,protein stability index
1,LSKEYWDCLEKKKSKHAPRGTHLW [G11K],2.97
2,LSKEYWDCLEAKKSKHAPRGTHLW [G11A],2.91
3,LSKEYWDCLEEKKSKHAPRGTHLW [G11E],3.29
4,LSKEYWDCLETKKSKHAPRGTHLW [G11T],2.98
5,LSKEYWDCLEQKKSKHAPRGTHLW [G11Q],2.69
6,LSKEYWDCLEDKKSKHAPRGTHLW [G11D],3.19
7,LSKEYWDCLELKKSKHAPRGTHLW [G11L],2.71
8,LSKEYWDCLEFKKSKHAPRGTHLW [G11F],2.43
9,LSKEYWDCLWGKKSKHAPRGTHLW [E10W],2.08
10,LSKEYWDCLYGKKSKHAPRGTHLW [E10Y],1.63
11,LSKEYWDCLEGKKSMHAPRGTHLW [K15M],3.18
12,LSKEYWDCLEGKKSFHAPRGTHLW [K15F],2.74
13,LSKEYWDCLEGKKSDHAPRGTHLW [K15D],3
14,LSKEYWDCLEGKKSRHAPRGTHLW [K15R],3.44
15,LSKEYWDCLEGKKSVHAPRGTHLW [K15V],2.64
16,LSKEYWDCLEGKKSGHAPRGTHLW [K15G],2.56
17,LSKEYWDCLEGKKSEHAPRGTHLW [K15E],2.77
18,LSKEYWDCLEGKKSQHAPRGTHLW [K15Q],2.87
19,LSKEYWDCLEGKKSCHAPRGTHLW [K15C],2.29
20,LSKEYWDCLEGKKSSHAPRGTHLW [K15S],3.04
21,LSKEYWDCLEGKKSIHAPRGTHLW [K15I],2.61
22,LSKEYWDCLEGKKSPHAPRGTHLW [K15P],2.53
23,LSKEYWDCLEGKKSNHAPRGTHLW [K15N],2.79
24,LSKEYWDCLEGKKSHHAPRGTHLW [K15H],2.52

row,Variant,protein stability index
1,LSKEYWDCLEGKKSAHAPRGTHLW [K15A],2.86
2,LSKEYWDCLEGKKSLHAPRGTHLW [K15L],2.16
3,LSKEYWDCLEGKKSTHAPRGTHLW [K15T],3.26
4,LSKEYWDCLEGKKEKHAPRGTHLW [S14E],3.16
5,LSKEYWDCLEGKKCKHAPRGTHLW [S14C],2.1
6,LSKEYWDCLEGKKGKHAPRGTHLW [S14G],2.77
7,LSKEYWDCLEGKKLKHAPRGTHLW [S14L],2.19
8,LSKEYWDCLEGKKHKHAPRGTHLW [S14H],2.5
9,LSKEYWDCLEGKKTKHAPRGTHLW [S14T],3.13
10,LSKEYWDCLEGKKVKHAPRGTHLW [S14V],2.94
11,LSKEYWDCLEGKKMKHAPRGTHLW [S14M],2.24
12,LSKEYWDCLEGKKAKHAPRGTHLW [S14A],2.81
13,LSKEYWDCLEGKKPKHAPRGTHLW [S14P],2.94
14,LSKEYWDCLEGKKDKHAPRGTHLW [S14D],4.18
15,LSKEYWDCLEGKKQKHAPRGTHLW [S14Q],2.71
16,LSKEYWDCLEGKKKKHAPRGTHLW [S14K],3.08
17,LSKEYWDCLEGKKWKHAPRGTHLW [S14W],3.31
18,LSKEYWDCLEGKKNKHAPRGTHLW [S14N],2.96
19,LSKEYWDCLEGKKIKHAPRGTHLW [S14I],2.68
20,LSKEYWDCLEGKKFKHAPRGTHLW [S14F],1.99
21,LSKEYWDCLEGKKRKHAPRGTHLW [S14R],2.92
22,LSKEYWDCLEGKKYKHAPRGTHLW [S14Y],3.48
